T1: human CD73 expressed at the cell surface (human, UniProt P21589 27-549)
T1 sequence: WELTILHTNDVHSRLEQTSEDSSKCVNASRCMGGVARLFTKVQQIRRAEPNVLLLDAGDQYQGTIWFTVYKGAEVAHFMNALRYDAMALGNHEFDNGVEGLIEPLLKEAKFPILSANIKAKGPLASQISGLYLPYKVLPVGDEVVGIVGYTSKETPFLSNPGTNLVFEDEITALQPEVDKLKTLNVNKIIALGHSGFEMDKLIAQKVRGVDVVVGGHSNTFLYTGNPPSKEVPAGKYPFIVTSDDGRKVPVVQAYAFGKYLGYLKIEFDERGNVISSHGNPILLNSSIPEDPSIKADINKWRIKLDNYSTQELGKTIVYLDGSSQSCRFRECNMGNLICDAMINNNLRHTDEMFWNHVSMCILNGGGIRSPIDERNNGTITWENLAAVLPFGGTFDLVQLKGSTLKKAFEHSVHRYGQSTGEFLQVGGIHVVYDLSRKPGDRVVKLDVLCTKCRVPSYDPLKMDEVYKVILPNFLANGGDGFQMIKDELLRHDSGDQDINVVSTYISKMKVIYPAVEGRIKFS

T2: human CD73 mutant 17 (human, UniProt P21589 27-549)
T2 construct: Transfected in HEK293T cells
T2 chain: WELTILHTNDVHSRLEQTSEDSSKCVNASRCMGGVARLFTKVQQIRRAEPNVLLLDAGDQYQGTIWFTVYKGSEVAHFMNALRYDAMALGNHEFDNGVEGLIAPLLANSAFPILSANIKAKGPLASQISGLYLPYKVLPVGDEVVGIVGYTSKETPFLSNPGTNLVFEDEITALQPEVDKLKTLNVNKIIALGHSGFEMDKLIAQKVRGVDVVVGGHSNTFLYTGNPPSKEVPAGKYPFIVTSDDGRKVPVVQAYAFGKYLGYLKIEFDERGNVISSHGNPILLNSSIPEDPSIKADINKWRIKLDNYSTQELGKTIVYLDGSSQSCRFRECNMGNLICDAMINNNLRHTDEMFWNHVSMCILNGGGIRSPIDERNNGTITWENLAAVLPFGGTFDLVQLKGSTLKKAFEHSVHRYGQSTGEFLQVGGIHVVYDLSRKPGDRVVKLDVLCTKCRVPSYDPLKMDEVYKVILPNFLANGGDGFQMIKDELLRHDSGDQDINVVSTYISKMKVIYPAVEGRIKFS

T3: human CD73 mutant 21 (human, UniProt P21589 27-549)
T3 construct: Transfected in HEK293T cells
T3 chain: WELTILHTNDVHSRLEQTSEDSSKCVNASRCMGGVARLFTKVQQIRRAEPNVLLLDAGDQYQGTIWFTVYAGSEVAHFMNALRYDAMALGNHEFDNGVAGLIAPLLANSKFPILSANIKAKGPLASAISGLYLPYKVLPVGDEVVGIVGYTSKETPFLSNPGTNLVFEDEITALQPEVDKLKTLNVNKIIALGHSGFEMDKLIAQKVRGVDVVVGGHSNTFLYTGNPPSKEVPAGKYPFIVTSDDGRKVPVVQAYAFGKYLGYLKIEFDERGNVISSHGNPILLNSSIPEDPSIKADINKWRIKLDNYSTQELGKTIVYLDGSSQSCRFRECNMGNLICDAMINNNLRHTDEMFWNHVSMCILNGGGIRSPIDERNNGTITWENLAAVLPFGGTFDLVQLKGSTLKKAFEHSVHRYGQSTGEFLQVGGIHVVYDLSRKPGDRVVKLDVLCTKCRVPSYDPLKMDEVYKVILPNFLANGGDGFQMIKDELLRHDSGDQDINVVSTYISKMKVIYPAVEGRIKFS

T4: human CD73 mutant 18 (human, UniProt P21589 27-549)
T4 construct: Transfected in HEK293T cells
T4 chain: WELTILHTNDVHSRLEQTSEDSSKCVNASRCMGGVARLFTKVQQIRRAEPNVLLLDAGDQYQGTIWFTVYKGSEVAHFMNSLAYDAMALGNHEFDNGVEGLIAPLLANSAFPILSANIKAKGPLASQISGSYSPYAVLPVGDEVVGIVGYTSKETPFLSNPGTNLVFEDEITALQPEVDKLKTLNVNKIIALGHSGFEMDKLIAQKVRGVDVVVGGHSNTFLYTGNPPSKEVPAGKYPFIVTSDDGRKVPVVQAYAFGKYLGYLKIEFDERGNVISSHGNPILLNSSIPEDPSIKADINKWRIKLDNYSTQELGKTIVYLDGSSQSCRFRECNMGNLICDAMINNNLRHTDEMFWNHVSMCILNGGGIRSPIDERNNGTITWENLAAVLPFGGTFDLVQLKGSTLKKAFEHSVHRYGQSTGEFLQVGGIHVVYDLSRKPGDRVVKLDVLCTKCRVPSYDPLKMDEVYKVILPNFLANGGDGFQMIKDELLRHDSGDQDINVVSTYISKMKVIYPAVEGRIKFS

T5: human CD73 mutant 16 (human, UniProt P21589 27-549)
T5 construct: Transfected in HEK293T cells
T5 chain: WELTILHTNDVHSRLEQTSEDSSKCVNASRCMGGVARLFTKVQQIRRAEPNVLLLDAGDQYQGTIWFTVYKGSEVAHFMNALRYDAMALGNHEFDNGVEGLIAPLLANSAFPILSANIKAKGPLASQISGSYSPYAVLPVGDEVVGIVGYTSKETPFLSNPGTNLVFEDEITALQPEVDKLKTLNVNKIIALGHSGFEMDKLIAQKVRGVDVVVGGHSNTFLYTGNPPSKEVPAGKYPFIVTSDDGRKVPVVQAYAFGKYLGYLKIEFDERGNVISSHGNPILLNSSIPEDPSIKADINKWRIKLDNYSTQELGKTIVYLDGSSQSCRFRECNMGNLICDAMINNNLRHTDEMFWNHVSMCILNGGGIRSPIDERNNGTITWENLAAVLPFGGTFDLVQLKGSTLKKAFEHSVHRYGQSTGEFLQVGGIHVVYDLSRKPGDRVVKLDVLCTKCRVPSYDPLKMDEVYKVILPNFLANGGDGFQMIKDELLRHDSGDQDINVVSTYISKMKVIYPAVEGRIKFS


Tests used:
[1] = biological target: T1, human CD73 expressed at the cell surface; test: cell-based or functional assay
human CD73 mutant 17 = biological target: T2, human CD73 mutant 17; test: flow cytometry, HEK293T transfectants
human CD73 mutant 21 = biological target: T3, human CD73 mutant 21; test: flow cytometry, HEK293T transfectants
human CD73 mutant 18 = biological target: T4, human CD73 mutant 18; test: flow cytometry, HEK293T transfectants
human CD73 mutant 16 = biological target: T5, human CD73 mutant 16; test: flow cytometry, HEK293T transfectants

| EC50 for neutralization of 5'-ectonucleotidase activity, mean over MDA-MB-231, H292 and A375 cells [1] [µg/mL] | EC70 for neutralization of 5'-ectonucleotidase activity, mean over MDA-MB-231, H292 and A375 cells [1] [µg/mL] | EC100 for neutralization of 5'-ectonucleotidase activity, mean over MDA-MB-231, H292 and A375 cells [1] [µg/mL] | binding result (human CD73 mutant 17) | binding result (human CD73 mutant 21) | binding result (human CD73 mutant 18) | binding result (human CD73 mutant 16) | Binder |
| --- | --- | --- | --- | --- | --- | --- | --- |
| 0.1 | 0.15 | 0.52 | no binding | no binding | no binding | no binding | antibody 11E1 (antibody, human IgG1, V domains shown, Produced as chimeric human IgG1 with heavy chain N297Q (Kabat EU numbering); also called 1E11) VH: EIQLQQSGPELVKPGASVKVSCKASGYAFTSYNMYWVKQSHGKSLEWIGYIDPYNGGTSYNQKFKGKATLTVDKSSSTAYMHLNSLTSEDSAVYYCARGYGNYKAWFAYWGQGTLVTVSA VL: DAVMTQTPKFLLVSAGDRVTITCKASQSVTNDVAWYQQKPGQSPKLLIYYASNRYTGVPDRFTGSGYGTDFTFTISTVQAEDLAVYFCQQDYSSLTFGAGTKLELK |
| 0.14 | 0.18 | 0.3 | no binding | no binding | no binding | no binding | antibody 3C12 (antibody, human IgG1, V domains shown, Produced as chimeric human IgG1 with heavy chain N297Q (Kabat EU numbering); RTVAAP)) VH: QIQLQQSGPELVKPGASVKVSCKASGYAFASYNMNWVKQSHGKSLDWIGYIDPYNGGSSYNLTFKGKATLTVDKSSTTAYMHLNSLTSEDSAVYYCARGYGNYKAWFAYWGQGTLVTVSA VL: DVVMTQTPKFLLVSAGDRVTITCKASQSVSNDVAWYQQKPGQSPKLLIYYASTRYTGVPDRFTGSGYGTDFTFTISTVQAEDLAVYFCQQDYSSLTFGAGTKLELKR |
| 0.13 | 0.19 | 0.68 | no binding | no binding | no binding | no binding | antibody 6E1 (antibody, human IgG1, V domains shown, Produced as chimeric human IgG1 with heavy chain N297Q (Kabat EU numbering)) VH: EFQLQQSGPELVKPGASVKVSCKASGYAFTSYNMYWVKQSHGKRLEWIGYIDPYNGGSSYNQKFKGKATLTVDKSSSTAYMHLNNLTSEDSAVYYCARGYNNYKAWFAYWGQGTLVTVSA VL: SIVMTQTPKFLLVSAGDRVTITCKASQSVTNDVAWYQQKPGQSPKLLIYYASNRYTGVPDRFTGSGYGTDFTFTISTMQAEDLAVYFCQQDYSSLTFGAGTKLELK |
